Data on 167 variants can be found in the RNAGym collection of RNA variant scans (doi:10.1073/pnas.2313332121).

B1: TPR t1 (parent)
chain: GACCAAUCUGCCCUCAGAGCUCGAGAACAUCUUCGGAUGCAGAGGAGGCAGGCUUCGGUGGCGCGAUAGCGCCAACGUCCUCAACCUCCAAUGCAUCCCACCACAUGAUGAUGCCUGAAGAGCCUUGGUUUUUUG

This data set covers variants of B1. Put plainly: polymerase ribozyme fitness, log enrichment relative to wild type (log ratio); higher = more active; in vitro selection for triplet polymerase activity. In a few lines:
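Frozen incubation at −7 °C formed the core of a single, triplicate in vitro selection round applied to PCR-built, transcribed mutant libraries of each subunit of a heterodimeric triplet polymerase ribozyme. Extended constructs were gel-excised, captured with streptavidin beads and amplified by RT-PCR, and input and output libraries were Illumina-sequenced with a filter of ≥10 input reads and ≥1 read per output. Fitness is the logarithm of genotype enrichment relative to wild-type enrichment, with inverse-variance-weighted replicate averaging, and the logarithm is base 2.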
On to U81G C88A, for which the “polymerase ribozyme fitness (log ratio)” value is -2.78. The value for U78C A83C C94U G110A A118U G120U U132C was -2.85; that for C8G G48A G128U was -2.01. With A27C C72G U112C G120C U126C U131A, the “polymerase ribozyme fitness (log ratio)” value was -4.66.

With C62A A84U, the “polymerase ribozyme fitness (log ratio)” value was -1.52. On to G42A G44A G47U, for which the “polymerase ribozyme fitness (log ratio)” value is -3.4. Turning to C13A G63C, the “polymerase ribozyme fitness (log ratio)” value was -2.37. To C82A G93C C97U G113U belongs -4.46.

In the case of G69U U133A, the “polymerase ribozyme fitness (log ratio)” value is -0.00372.

As to G45A C49A, the “polymerase ribozyme fitness (log ratio)” value is -0.473. To C72U C94A U125A belongs -1.59. As to C53G C97U A118U, the “polymerase ribozyme fitness (log ratio)” value is -0.0977.

On to G45C C56G C89A, for which the “polymerase ribozyme fitness (log ratio)” value is -2.69. The value for C123A G128U was -0.255; that for C13A G57A G127C was -3.7. The value for G17A G42U G57A G120C was -3.79; that for U9G C12G C28G C40A C85A A90C C104A G110C was -4.42.

For the variant G39U A46G C115G, the “polymerase ribozyme fitness (log ratio)” value is -3.39. As to C13A A84G, the “polymerase ribozyme fitness (log ratio)” value is -2.42.

Consider U9G A18C G117C, for which the “polymerase ribozyme fitness (log ratio)” value came out at 0.268. With C22G C86G G110U A121U, the “polymerase ribozyme fitness (log ratio)” value was -3.31.

Consider G42U G117A, for which the “polymerase ribozyme fitness (log ratio)” value was -2.9. To G19U C89U G120C belongs -2.25; to C20A G122A, -3.47; to C8A C49U C72A A100C U106G U109A U132C, -4.59. To A27C G57U G69U C124G belongs 0.217; to U32C A74G G128C, -2.08; to A29C A90G G113U C114U, -3.29.

For G117A U125A, the “polymerase ribozyme fitness (log ratio)” value was -3.14.

As for A2U C13U G77C, the “polymerase ribozyme fitness (log ratio)” value was -1.85. As to C53A G63A U78C G110U, the “polymerase ribozyme fitness (log ratio)” value is -3.53. To G52U C72U C104A G127C belongs -3.82; to G48U C89U C124G G128A, -0.497. To C13U G57A C102A G127C belongs -3.71; to C8U G71A C115U, -1.94. The value for A6G C12A A50G G120A was 2.01; that for G60U U87A C123G was 1.56. As to G10A C64U U129G, the “polymerase ribozyme fitness (log ratio)” value is -1.78. To C85A A95C belongs -2.61.

C56G C70A A83G U96C G120A: the “polymerase ribozyme fitness (log ratio)” value was -4.37. To C49G C124G belongs 1.58. The value for C11A G48A A50U C70U C97G G122A was -5.3; that for A5G G61C C104A was -2.73. The value for C53A G63A U78C was -2.46; that for G36U C53U G61A U96G was -2.34; that for G47U G51U C124U was -3.46. As to A29C A41G, the “polymerase ribozyme fitness (log ratio)” value is -2.15. The value for U87C C99U U129G was -3.62; that for C73U C88U U92G was -2.64; that for C11U U54C G63U C85A was -2.46. The value for C4A C15G was -4.24. The value for G23U G63C was -6.19; that for G58C C70U G110C A121U was -5.63. G61U U87A A121U: the “polymerase ribozyme fitness (log ratio)” value was found to be 1.5. To C80U C101U A111U U116A belongs -4.81; to A2U G110U, -2.47; to A41G G45A A50C C123U, -0.694.

Take C34U C114U U131A: the “polymerase ribozyme fitness (log ratio)” value was -4.04. To C13U A27U G42U C64G A100C G120C C123G belongs -7.95; to A37G C49U C82A U87C U106G U133G, -2.13. Consider G60A U116G, for which the “polymerase ribozyme fitness (log ratio)” value is -2.22.

For C102U A121G, the “polymerase ribozyme fitness (log ratio)” value turned out to be 0.0036.

With C3G C11G C97G C114A, the “polymerase ribozyme fitness (log ratio)” value is -4.68.

Consider C11G C73A, for which the “polymerase ribozyme fitness (log ratio)” value was 0.279. To A2G G42U G69A C123A belongs -5.6. For G63A U112C, the “polymerase ribozyme fitness (log ratio)” value came out at 0.988. To A26G C123G C124U G135U belongs -1.25; to A43C G47U G69U, -1.43. On to C13A C72U A83C A84G U112C, for which the “polymerase ribozyme fitness (log ratio)” value was -1.46. For the variant U32A C40U U106A, the “polymerase ribozyme fitness (log ratio)” value is -6.43. To C115U U126G belongs -3.36; to G71U U78C C98U A119U, -1.19; to G19A C56G U106A G113C, -1.09.

With U9C C80G, the “polymerase ribozyme fitness (log ratio)” value was -5.3. To G63A G128U belongs -3.07; to C70G C85A, -4.06. The value for U32C C64U G93A C114G U134G was -2.93. The value for C13G G35C C64U A90G G93A C97A C124A was -5.83. On to C15A G47U, for which the “polymerase ribozyme fitness (log ratio)” value was -4.02. The value for C85U C94U was -1.2; that for A18U G42U was -2.23; that for G69C U106A G120U G128U was -2.78. The value for A2U C82U C86G A121G was -0.832; that for C20U U38G C72U C102U was -5.01; that for U32C G117U was -2.41. The value for C124U U126A was 1.37; that for A5G G60A was -0.271; that for C4U U78C was -0.902. On to C4A G120C, for which the “polymerase ribozyme fitness (log ratio)” value is -0.842. To A6C A16U C70U C104A belongs -4.73; to C49G U55C C76U A95C C98U, -2.41; to U96A C98U, -3.4. For the variant C8G C79G C80A, the “polymerase ribozyme fitness (log ratio)” value was -5.06. G36C G60U A118U: the “polymerase ribozyme fitness (log ratio)” value was -0.591.

As to G39A G51A, the “polymerase ribozyme fitness (log ratio)” value is -2.96. For the variant C20A G45U C53G G63C C88U A111U U125G, the “polymerase ribozyme fitness (log ratio)” value is -5.87. To A46U G71U G110A belongs -2.84.

On to A37C U54A C64U U109A, for which the “polymerase ribozyme fitness (log ratio)” value was -6.92. To C62U C124U belongs 0.977; to G48C C49A C88U A95G, -0.72; to C72U G120C C123G, 0.164. To C76U A111U belongs -3.86; to C56A C64G, -5.92; to C22G A90U U106A A111U, -3.25.

In the case of C20U C62U U92A C97U, the “polymerase ribozyme fitness (log ratio)” value is -5.74.

As to A41U C89U G113U G117U, the “polymerase ribozyme fitness (log ratio)” value was -5.95.

With C49U G69U A121C, the “polymerase ribozyme fitness (log ratio)” value worked out at 1.51. To C8A A100U U116G U133A G135U belongs -0.711; to G47A C62U U112C C114U A118G, -3.76. To C28U G71U C82A belongs -3.3. Turning to C11U A18U G69U, the “polymerase ribozyme fitness (log ratio)” value is -0.642.

Consider A5C G10A C34A G63U C123U, for which the “polymerase ribozyme fitness (log ratio)” value was -4.02.

C101A U126G G127C: the “polymerase ribozyme fitness (log ratio)” value was -2.49. To U32C A41U C124G G128A belongs -1.01. To C49G C72G G120C belongs -0.782; to U21A A26G C40G C49A, -3.04. Take A43C A74G C101A A111G: the “polymerase ribozyme fitness (log ratio)” value is -3.37. To A6U C22G U87A U92C A121U belongs -2.63; to G44A C49U C76G C88G, -3.44; to U87G U129C, 0.0365. To A46G A95G belongs -0.108. The value for C53A G117A was 0.856; that for C13G G19C G61U C88U was -4.01; that for G23U A26C A43U G63U G93A G117C was -6.53. Take G58C C73U C86G: the “polymerase ribozyme fitness (log ratio)” value is -0.297. The value for G45A A50G G93C was -1.62; that for C4A C13U was -1.41; that for C40U G51U G58A was -4.36.

On to C8U G42U, for which the “polymerase ribozyme fitness (log ratio)” value was -0.81. To A26G A29G G39U belongs -3.81. For the variant A29G G60U A84C C94U U106A G120A U125G, the “polymerase ribozyme fitness (log ratio)” value was -0.963. With U7G C12U G36A C40A G45A G71U, the “polymerase ribozyme fitness (log ratio)” value is -3.31. The value for U7G A46U G93U was -2.2; that for A105U G135C was -2.07; that for C99A U112G C114U was -6.6. To C3A C8G C88U A90C G110A U132A belongs -2.77; to A66U G93C C115U U116C, -5.96. To C73U C79G belongs -2.02; to G61U C98A C99A, -5.19; to C11G C80U, -0.0495. Regarding A6U C72A, the “polymerase ribozyme fitness (log ratio)” value was determined as 0.375.

A46G U112A: the “polymerase ribozyme fitness (log ratio)” value was found to be 1.3. Take C62U C88G C114G: the “polymerase ribozyme fitness (log ratio)” value is -3.23.

A27U G107A A121U G128U G135C: the “polymerase ribozyme fitness (log ratio)” value was -3.88. The value for C98U G117C was -5.29.

As to G69C C101G, the “polymerase ribozyme fitness (log ratio)” value was -3.84. To A6U C22A C49U C72U belongs -5.16; to G58C C73A C98G, -6.44. The value for A26U C94U C123G U132C was -1.68; that for A29U G51C G120U was -3.96. In the case of C73U A103C, the “polymerase ribozyme fitness (log ratio)” value is -3.82.

On to G10U G36A C64G A83G C94G G110U, for which the “polymerase ribozyme fitness (log ratio)” value is -7.24. To C56A G120C belongs 0.484.

As to C62A C82A C85U, the “polymerase ribozyme fitness (log ratio)” value was -2.3. To U9C A103C C104A belongs -2.12; to G17A G60U C97U, -4.13; to G52C, -0.632.

As for A37U G60A C101U, the “polymerase ribozyme fitness (log ratio)” value is -0.477.

With G52U G61C C123A, the “polymerase ribozyme fitness (log ratio)” value is -0.217. To U54C A84G C88A C98U belongs -1.69; to C31U U32G G35U G61U A91C A121U, -7.

As for G61U A84U, the “polymerase ribozyme fitness (log ratio)” value was -0.0265. To C70U G128U U133G belongs -2.39. To G117C A121C belongs -3.29. Consider C40U G69A C72U C124A, for which the “polymerase ribozyme fitness (log ratio)” value is -1.11.

Consider C3U C22A A74U G77A U106C C114A, for which the “polymerase ribozyme fitness (log ratio)” value is -4.34. To C12A C76A C82A U92G belongs -4.72.
